# Values of other authors, collected in patent US20240408179A1, “ORAL DELIVERY OF THERAPEUTIC AGENTS” (GUANGZHOU DAZHOU BIOMEDICINE LTD., priority 2021, published 2024).
# What was measured:
# [1] = humans, co-formulated with SNAC
# [2] = system: T2D patients with high risk of cardiovascular disease events; details: empagliflozin group versus placebo group
Compound,oral bioavailability (BA %) [1],relative risk reduction in death from cardiovascular causes [2] [%]
semaglutide,0.5-1%,–
OC[C@H]1O[C@@H](c2ccc(Cl)c(Cc3ccc(O[C@H]4CCOC4)cc3)c2)[C@H](O)[C@@H](O)[C@@H]1O [empagliflozin],–,38
